Reference: patent US11091546B2, “Optimized PNE-based chimeric receptor T cell switches and uses thereof” (The Scripps Research Institute, priority 2015, dated 2021)

Tested on: U937 (CLL1+) cells
Assay: Cytotoxicity assay, sCAR-T cells + anti-CLL1 switches
Assay type: cell-based
Details: with short-dimeric CAR
Excerpt: FIG. 38A illustrates multiple fusion/grafting locations: A=LCNT1 (light chain N terminus version 1), B=HCNT3 (heavy chain N terminus version 3), C=heavy chain C terminus, and D=light chain C terminus). […] Data shown are an average of duplicate samples, and error bars represent SD. Only the NT switches plus the BvCT and By CH1CL1 as references are depicted.
By utilizing the “universal” anti-peptide sCART cell, multiple switches targeting multiple cancer associated antigens can be rapidly developed. An example of this is the generation of peptide engrafted switches against the AML associated antigen CLL1. A series of 6 plasmids were designed into which commercially synthesized gene-blocks encoding scFv sequences were inserted by gibson phase assembly to generate: Light chain wild type, light chain N-terminal, light chain C-terminal, heavy chain wild type, heavy chain N-terminal and heavy chain C-terminal plasmid constructs. […]
Another example (see Example 7) of switch SAR was shown with the anti-CLL1 switch derived from the anti-CLL1 antibody clone. […] Using these switches in combination with the three different CAR constructs (long, short and short dimeric) in cytotoxicity assays with the CLL1^+U937 cell line it was determined that N-terminal bivalent switches with the short-dimeric CAR was the most optimal for immunological synapse for the in vitro killing of U937 cells (FIG. 38D). […]

B1: anti-CLL1 switch A + B: anti-CLL1 Fab switch, N-terminal bivalent (LCNT & HCNT; SEQ ID 102 & 103) (antibody)
heavy: NYHLENEVARLKKLLVGEAAAKEAAAKADIQLQESGPGLVKPSQSLSLTCSVTGYSITSAYYWNWIRQFPGNKLEWMGYISYDGRNNYNPSLKNRISITRDTSKNQFFLKLNSVTTEDTATYYCAKEGDYDVGNYYAMDYWGQGTSVTVSSARTKGPSVFPLAPSSKSTSGGTAALGCLVKDYFPEPVTVSWNSGALTSGVHTFPAVLQSSGLYSLSSVVTVPSSSLGTQTYICNVNHKPSNTKVDKKVEPKSC
light: NYHLENEVARLKKLGGGGSENVLTQSPAIMSASPGEKVTMTCRASSNVISSYVHWYQQRSGASPKLWIYSTSNLASGVPARFSGSGSGTSYSLTISSVEAEDAATYYCQQYSGYPLTFGAGTKLELKRAAAAPSVFIFPPSDEQLKSGTASVVCLLNNFYPREAKVQWKVDNALQSGNSQESVTEQDSKDSTYSLSSTLTLSKADYEKHKVYACEVTHQGLSSPVTKSFNRGEC
modifications: peptide on N-termini; Made in lab - CLL1(1075.7)-HC_NT3 switch antibody polynucleotide; Made in lab - CLL1(1075.7)-LC_NT1 switch antibody polynucleotide
  immunological synapse for in vitro killing: most optimal
